Target: activated human plasma kallikrein (Enzyme Research Laboratories) (human) (UniProt P03952)
Assay: cell-based or functional assay

Chain of UniProt P03952 (P03952 20-638 limits assumed): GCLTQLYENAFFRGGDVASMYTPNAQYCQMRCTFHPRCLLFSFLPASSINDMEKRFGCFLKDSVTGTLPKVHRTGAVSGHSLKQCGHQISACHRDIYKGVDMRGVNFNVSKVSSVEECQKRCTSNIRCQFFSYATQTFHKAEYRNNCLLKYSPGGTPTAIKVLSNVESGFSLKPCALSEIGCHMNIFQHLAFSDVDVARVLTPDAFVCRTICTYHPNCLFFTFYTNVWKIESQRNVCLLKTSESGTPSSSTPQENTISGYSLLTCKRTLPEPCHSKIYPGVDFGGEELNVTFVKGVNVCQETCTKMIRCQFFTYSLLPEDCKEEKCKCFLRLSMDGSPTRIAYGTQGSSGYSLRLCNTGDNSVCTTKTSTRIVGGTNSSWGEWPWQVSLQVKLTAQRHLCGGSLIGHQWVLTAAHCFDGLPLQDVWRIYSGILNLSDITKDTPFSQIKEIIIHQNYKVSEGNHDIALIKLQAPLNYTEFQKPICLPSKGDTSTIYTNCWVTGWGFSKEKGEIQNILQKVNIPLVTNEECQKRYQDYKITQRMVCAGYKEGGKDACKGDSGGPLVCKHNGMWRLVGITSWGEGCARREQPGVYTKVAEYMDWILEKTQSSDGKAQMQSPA

suppression of pKal activity (PFR-AMC fluorogenic kinetic enzymatic assay): 0.1 nM
Substance: Therapeutic antibody (GenScript), human anti-pKal antibody (lanadelumab)

From patent US20240124890A1
